Results as given in article PMC5983119.

Columns and labels:
[1] = biological target: TDP-43 M323K (LCDmut) M323K (mouse) (UniProt Q921F2); assay: EMSA; parameters: unit not given beside the values; details: 5% acrylamide gel, protein 0.25-2 ug with 32P RNA in unspecified binding buffer, salt, pH and temperature not given
TDP-43 WT (mouse) = TDP-43 WT (mouse) (UniProt Q921F2); assay: EMSA; parameters: unit not given beside the values; details: 5% acrylamide gel, protein 0.25-2 ug with 32P RNA in unspecified binding buffer, salt, pH and temperature not given

With UGUGUGUGUGUG [(UG)6 RNA] as the sequence, how does the Kd [1] read?
Its Kd is 32200.

And the Kd (TDP-43 WT (mouse))?
The Kd was 27600.
